B1: DcR1-Ig receptor chimera (R&D Systems) (Fc fusion, UniProt O14798 26-221, looked up, not shown: a dimerising Fc or GST)
chain: ATTARQEEVPQQTVAPQQQRHSFKGEECPAGSHRSEHTGACNPCTEGVDYTNASNNEPSCFPCTVCKSDQKHKSSCTMTRDTVCQCKEGTFRNENSPEMCRKCSRCPSGEVQVSNCTSWDDIQCVEEFGANATVETPAAEETMNTSPGTPAPAAEETMNTSPGTPAPAAEETMTTSPGTPAPAAEETMTTSPGTPA
B2: TRAIL variant D269H (114-281) (ligand)
chain: MVRERGPQRVAAHITGTRGRSNTLSSPNSKNEKALGRKINSWESSRSGHSFLSNLHLRNGELVIHEKGFYYIYSQTYFRFQEEIKENTKNDKQMVQYIYKYTSYPDPILLMKSARNSCWSKDAEYGLYSIYQGGIFELKENDRIFVSVTNEHLIDMHHEASFFGAFLVG
notes: All mutants are said to be of the length 114-281; also called rhTRAIL carrying mutation D269H; DR5-selective variant
B3: TRAIL variant D269HE195R (114-281) (ligand)
chain: MVRERGPQRVAAHITGTRGRSNTLSSPNSKNEKALGRKINSWESSRSGHSFLSNLHLRNGELVIHEKGFYYIYSQTYFRFQERIKENTKNDKQMVQYIYKYTSYPDPILLMKSARNSCWSKDAEYGLYSIYQGGIFELKENDRIFVSVTNEHLIDMHHEASFFGAFLVG
notes: All mutants are said to be of the length 114-281; also called TRAIL-DR5; DE
B4: DcR2-Ig receptor chimera (R&D Systems) (Fc fusion, UniProt Q9UBN6 56-211, looked up, not shown: a dimerising Fc or GST)
chain: ATIPRQDEVPQQTVAPQQQRRSLKEEECPAGSHRSEYTGACNPCTEGVDYTIASNNLPSCLLCTVCKSGQTNKSSCTTTRDTVCQCEKGSFQDKNSPEMCRTCRTGCPRGMVKVSNCTPRSDIKCKNESAASSTGKTPAAEETVTTILGMLASPYH

Key:
[1] = molecular target: wild-type TRAIL (recombinant human soluble TRAIL, amino acids 114-281) (human, UniProt P50591 114-281); assay: cell-based or functional assay
[2] = molecular target: B2; assay: cell-based or functional assay
[3] = molecular target: B3; assay: cell-based or functional assay
[4] = molecular target: B1; assay: SPR (Biacore 3000, 37 °C), DcR1-Ig captured on protein A, pre-steady state
[5] = molecular target: B4; assay: SPR (Biacore), DcR2-Ig captured on a protein A-modified CM5 chip, response in RU against ligand concentration (pre-steady state)
[6] = molecular target: death receptor 5 (DR5) on the cell surface (human, UniProt O14763 56-440); assay: cell-based or functional assay
DR5-Ig = molecular target: T1, DR5-Ig (UniProt O14763 54-182); assay: not stated there (SPR by the context of paragraph 339)
T1 construct: also called sDR5; soluble recombinant DR5-Ig; not shown: Ig (Fc) part

wild-type TRAIL (recombinant human soluble TRAIL, amino acids 114-281), sequence (P50591 114-281 limits assumed): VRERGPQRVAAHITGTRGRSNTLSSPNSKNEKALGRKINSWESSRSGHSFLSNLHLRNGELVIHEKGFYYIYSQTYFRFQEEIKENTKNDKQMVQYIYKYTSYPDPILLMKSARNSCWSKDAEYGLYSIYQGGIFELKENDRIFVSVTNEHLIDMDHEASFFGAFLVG

Row | Binder | block of ligand-induced apoptosis of Colo205 cells (Annexin V) after pre-incubation of the ligand with soluble receptor [1] [µg/mL] | block of ligand-induced apoptosis of Colo205 cells (Annexin V) after pre-incubation of the ligand with soluble receptor [2] | block of ligand-induced apoptosis of Colo205 cells (Annexin V) after pre-incubation of the ligand with soluble receptor [3] [µg/mL] | fold reduction of binding compared to wtTRAIL [4] [fold] | binding result [5] | rate of receptor activation relative to wtTRAIL [6] [fold] | fold increase in kon compared to wtTRAIL (DR5-Ig) [fold]
1 | B1 | 0.5 | > 2 µg/mL | > 2 | – | – | – | –
2 | B2 | – | – | – | ~20 | binds | – | –
3 | B3 | – | – | – | ~20 | binds | 17 | < 5
4 | B4 | – | 2 fold | – | – | – | – | –
